Consider 2 molecules from patent US20260091080A1 (CELOSIA THERAPEUTICS, published 2026).

For assay [1], the target named is endogenous TDP-43 of murine N2a cells and mouse brain (mouse, UniProt Q921F2 1-414). The assay can be described thus: co-immunoprecipitation from N2a cells and mouse brain.
Assay [2] addresses YES-associated protein (YAP) (UniProt P46937 1-504). The assay can be described thus: co-precipitation with expressed Fx.
Another assay has as its target FOXO1 (UniProt Q12778 1-655, limits assumed). The assay can be described thus: co-precipitation with expressed Fx.

Sequence of FOXO1 (Q12778 whole entry): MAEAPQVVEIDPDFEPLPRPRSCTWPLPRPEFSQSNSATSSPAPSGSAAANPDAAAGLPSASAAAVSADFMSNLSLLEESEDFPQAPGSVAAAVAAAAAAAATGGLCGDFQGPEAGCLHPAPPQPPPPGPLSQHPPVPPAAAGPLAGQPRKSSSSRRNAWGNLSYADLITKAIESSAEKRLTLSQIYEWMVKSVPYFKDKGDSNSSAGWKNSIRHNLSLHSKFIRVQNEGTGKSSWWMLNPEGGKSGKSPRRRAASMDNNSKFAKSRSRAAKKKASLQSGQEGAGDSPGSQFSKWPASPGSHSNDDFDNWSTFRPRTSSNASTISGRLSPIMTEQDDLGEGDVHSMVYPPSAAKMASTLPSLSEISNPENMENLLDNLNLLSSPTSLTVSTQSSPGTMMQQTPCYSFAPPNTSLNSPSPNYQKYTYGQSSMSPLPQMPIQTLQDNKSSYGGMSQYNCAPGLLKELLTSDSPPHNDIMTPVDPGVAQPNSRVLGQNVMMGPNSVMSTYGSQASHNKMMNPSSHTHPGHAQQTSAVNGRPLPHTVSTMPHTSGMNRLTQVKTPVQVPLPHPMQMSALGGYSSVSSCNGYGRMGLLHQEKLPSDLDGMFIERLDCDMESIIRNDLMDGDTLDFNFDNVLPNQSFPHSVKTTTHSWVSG
Sequence of endogenous TDP-43 of murine N2a cells and mouse brain (Q921F2 whole entry): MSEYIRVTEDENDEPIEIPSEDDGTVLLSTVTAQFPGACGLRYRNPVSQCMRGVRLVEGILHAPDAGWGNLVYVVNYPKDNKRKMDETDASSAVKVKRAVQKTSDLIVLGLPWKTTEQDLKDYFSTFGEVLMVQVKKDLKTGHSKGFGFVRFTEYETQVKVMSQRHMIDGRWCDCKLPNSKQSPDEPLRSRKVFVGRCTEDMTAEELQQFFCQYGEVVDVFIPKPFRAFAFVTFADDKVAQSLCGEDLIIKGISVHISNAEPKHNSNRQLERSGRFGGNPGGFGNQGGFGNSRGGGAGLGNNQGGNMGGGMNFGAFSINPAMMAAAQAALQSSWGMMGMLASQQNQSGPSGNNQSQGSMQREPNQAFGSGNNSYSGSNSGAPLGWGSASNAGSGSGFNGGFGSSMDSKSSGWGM
Sequence of YES-associated protein (YAP) (P46937 whole entry): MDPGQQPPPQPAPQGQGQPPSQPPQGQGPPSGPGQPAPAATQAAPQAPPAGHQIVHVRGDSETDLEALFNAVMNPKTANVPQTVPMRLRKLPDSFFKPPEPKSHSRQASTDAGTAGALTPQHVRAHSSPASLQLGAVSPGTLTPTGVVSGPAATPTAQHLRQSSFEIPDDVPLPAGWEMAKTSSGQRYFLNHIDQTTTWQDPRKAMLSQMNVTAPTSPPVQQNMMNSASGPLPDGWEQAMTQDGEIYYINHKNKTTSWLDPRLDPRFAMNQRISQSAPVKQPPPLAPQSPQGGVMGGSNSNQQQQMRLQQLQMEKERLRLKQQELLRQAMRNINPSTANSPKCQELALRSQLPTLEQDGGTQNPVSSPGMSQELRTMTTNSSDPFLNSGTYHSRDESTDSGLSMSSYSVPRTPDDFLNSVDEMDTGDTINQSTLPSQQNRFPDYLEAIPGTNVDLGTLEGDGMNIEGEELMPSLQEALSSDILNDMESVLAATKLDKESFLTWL

B1: endogenous 14-3-3θ of murine N2a cells and mouse brain (other, UniProt P68254 1-245, looked up)
chain: MEKTELIQKAKLAEQAERYDDMATCMKAVTEQGAELSNEERNLLSVAYKNVVGGRRSAWRVISSIEQKTDTSDKKLQLIKDYREKVESELRSICTTVLELLDKYLIANATNPESKVFYLKMKGDYFRYLAEVACGDDRKQTIENSQGAYQEAFDISKKEMQPTHPIRLGLALNFSVFYYEILNNPELACTLAKTAFDEAIAELDTLNEDSYKDSTLIMQLLRDNLTLWTSDSAGEECDAAEGAEN
B1: the binding result in assay [1] is “binds”.

B2: 14-3-3θ-Fx-V5 (α-helix 6 (αF) of 14-3-3θ alone) (peptide)
peptide: GDDRKQTIDNSQGAYQEAFDISKKEMQPTH
notes: not shown: V5 tag
B2: the binding result (in assay [2]; with FOXO1) was “no binding” throughout.
